These results are taken from patent US20150079657.

Test in all cases: cell_activity
Series [1] concerns ZF(Oct4+286)-p300 (Artificial Sequence). Conditions: OCT4 mRNA in HEK293; at least 20-fold in K562; H3K27ac increased.
Series [2] has as its system ZF(Oct4+420)-p300 (Artificial Sequence). Conditions: OCT4 mRNA in HEK293; at least 20-fold in K562; H3K27ac increased.
Series [3] relates to ZF(Sox2+185)-p300 (Artificial Sequence). To be noted: SOX2 mRNA in HEK293; nearly 2-fold or greater in K562.
Chain of ZF(Sox2+185)-p300 (Artificial Sequence) (chain, as listed by the source): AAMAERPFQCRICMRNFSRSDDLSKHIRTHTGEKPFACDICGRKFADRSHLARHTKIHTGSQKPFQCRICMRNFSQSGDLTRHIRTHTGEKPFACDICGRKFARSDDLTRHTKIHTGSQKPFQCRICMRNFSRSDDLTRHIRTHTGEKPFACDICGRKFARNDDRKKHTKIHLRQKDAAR
Series [4] deals with ZF(Sox2+r475)-p300 (Artificial Sequence). To be noted: SOX2 mRNA in HEK293; nearly 2-fold or greater in K562.
Chain of ZF(Sox2+r475)-p300 (Artificial Sequence) (chain, as listed by the source): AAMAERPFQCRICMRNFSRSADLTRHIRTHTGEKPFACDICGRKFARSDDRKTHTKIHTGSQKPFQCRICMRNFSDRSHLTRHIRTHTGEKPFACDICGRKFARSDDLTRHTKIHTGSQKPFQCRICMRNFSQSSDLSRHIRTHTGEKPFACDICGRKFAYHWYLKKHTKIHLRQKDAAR

Chain of ZF(Oct4+286)-p300 (Artificial Sequence) (chain, as listed by the source): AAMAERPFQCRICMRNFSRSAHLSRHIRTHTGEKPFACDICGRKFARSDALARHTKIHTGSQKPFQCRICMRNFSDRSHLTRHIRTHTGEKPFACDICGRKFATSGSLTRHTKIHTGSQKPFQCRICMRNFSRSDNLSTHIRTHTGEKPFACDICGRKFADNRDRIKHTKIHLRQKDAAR
Chain of ZF(Oct4+420)-p300 (Artificial Sequence) (chain, as listed by the source): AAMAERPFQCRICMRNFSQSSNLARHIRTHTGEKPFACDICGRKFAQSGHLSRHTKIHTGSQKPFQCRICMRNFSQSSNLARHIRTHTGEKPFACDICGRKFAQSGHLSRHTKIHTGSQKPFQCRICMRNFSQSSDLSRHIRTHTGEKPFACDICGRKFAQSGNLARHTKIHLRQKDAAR

OCT4 +286 target site yielded an activity in series [1] of more than 90 fold. In turn, OCT4 +420 target site showed an activity in series [2] of more than 90 fold.

Consider SOX2 +185 target site, for which the activity in series [3] is more than 1.5 fold. SOX2 +r475 target site (reverse strand) came in with an activity in series [4] of more than 1.5 fold.
